Measured values: article PMC10834429, “HRDE-2 drives small RNA specificity for the nuclear Argonaute protein HRDE-1” (Nature Communications, 2024)

Key:
[1] = target: T1, GFP::3xFLAG::HRDE-1(HK-AA) (C. elegans, UniProt Q09249 1-1032, H664A | K668A); experiment: co-IP; lysate of adult animals; anti-FLAG beads precipitate GFP::3xFLAG::HRDE-1, HRDE-2::2xTy1::GFP detected with anti-Ty1; wild-type, mut-2 mutant and hrde-1(HK-AA) backgrounds; band intensities by ImageJ normalized to HRDE-1 immunoprecipitated and to wild-type; details: partners not purified
T1 construct: Tag ends are read from the strain notation; Repair template is in Supplementary Data 3; source: C. elegans strain hrde-1(cmp309[HK-AA]) made in hrde-1(tor125[GFP::3xFLAG::hrde-1]), adult animals, in lysate; not shown: GFP, N-terminal, kept; 3xFLAG, N-terminal, kept
T1 sequence (looked up): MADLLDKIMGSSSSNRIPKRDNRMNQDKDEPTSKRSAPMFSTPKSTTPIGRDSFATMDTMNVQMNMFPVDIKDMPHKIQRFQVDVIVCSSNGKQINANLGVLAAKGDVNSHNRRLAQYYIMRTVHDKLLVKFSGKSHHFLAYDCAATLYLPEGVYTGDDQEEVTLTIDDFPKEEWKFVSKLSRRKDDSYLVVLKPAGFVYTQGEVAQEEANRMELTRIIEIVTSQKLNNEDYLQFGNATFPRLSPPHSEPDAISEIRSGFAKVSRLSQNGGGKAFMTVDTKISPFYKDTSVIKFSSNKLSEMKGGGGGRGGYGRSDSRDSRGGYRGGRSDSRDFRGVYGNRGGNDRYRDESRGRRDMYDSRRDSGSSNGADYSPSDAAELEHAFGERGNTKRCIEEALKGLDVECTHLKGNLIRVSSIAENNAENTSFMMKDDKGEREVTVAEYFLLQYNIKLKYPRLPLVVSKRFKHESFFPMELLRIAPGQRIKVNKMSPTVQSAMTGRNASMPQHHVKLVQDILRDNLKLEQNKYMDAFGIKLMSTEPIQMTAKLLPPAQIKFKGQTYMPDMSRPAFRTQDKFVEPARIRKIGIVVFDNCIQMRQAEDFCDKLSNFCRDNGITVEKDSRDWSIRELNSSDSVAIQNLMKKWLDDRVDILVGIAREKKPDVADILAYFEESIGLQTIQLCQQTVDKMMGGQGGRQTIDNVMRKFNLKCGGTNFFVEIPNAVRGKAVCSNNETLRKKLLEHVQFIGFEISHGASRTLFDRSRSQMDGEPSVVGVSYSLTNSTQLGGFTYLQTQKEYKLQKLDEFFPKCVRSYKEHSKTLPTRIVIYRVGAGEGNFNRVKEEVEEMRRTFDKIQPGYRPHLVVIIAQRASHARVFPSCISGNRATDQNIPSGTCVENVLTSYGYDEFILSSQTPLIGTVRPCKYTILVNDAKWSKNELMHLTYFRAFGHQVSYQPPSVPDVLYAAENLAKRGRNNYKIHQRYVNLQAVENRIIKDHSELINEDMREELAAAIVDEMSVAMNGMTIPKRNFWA

GFP::3xFLAG::HRDE-1 = target: T2, GFP::3xFLAG::HRDE-1 (C. elegans, UniProt Q09249 1-1032); experiment: as above; details: partners not purified
T2 construct: HRDE-1/WAGO-9, germline nuclear Argonaute, C. elegans, tagged in the worm strain; Tag ends are read from the strain notation GFP::3xFLAG::HRDE-1; also called HRDE-1/WAGO-9; wild-type HRDE-1; source: C. elegans strain hrde-1(tor125[GFP::3xFLAG::hrde-1]), adult animals, in lysate; not shown: GFP, N-terminal, kept; 3xFLAG, N-terminal, kept
T2 sequence (looked up): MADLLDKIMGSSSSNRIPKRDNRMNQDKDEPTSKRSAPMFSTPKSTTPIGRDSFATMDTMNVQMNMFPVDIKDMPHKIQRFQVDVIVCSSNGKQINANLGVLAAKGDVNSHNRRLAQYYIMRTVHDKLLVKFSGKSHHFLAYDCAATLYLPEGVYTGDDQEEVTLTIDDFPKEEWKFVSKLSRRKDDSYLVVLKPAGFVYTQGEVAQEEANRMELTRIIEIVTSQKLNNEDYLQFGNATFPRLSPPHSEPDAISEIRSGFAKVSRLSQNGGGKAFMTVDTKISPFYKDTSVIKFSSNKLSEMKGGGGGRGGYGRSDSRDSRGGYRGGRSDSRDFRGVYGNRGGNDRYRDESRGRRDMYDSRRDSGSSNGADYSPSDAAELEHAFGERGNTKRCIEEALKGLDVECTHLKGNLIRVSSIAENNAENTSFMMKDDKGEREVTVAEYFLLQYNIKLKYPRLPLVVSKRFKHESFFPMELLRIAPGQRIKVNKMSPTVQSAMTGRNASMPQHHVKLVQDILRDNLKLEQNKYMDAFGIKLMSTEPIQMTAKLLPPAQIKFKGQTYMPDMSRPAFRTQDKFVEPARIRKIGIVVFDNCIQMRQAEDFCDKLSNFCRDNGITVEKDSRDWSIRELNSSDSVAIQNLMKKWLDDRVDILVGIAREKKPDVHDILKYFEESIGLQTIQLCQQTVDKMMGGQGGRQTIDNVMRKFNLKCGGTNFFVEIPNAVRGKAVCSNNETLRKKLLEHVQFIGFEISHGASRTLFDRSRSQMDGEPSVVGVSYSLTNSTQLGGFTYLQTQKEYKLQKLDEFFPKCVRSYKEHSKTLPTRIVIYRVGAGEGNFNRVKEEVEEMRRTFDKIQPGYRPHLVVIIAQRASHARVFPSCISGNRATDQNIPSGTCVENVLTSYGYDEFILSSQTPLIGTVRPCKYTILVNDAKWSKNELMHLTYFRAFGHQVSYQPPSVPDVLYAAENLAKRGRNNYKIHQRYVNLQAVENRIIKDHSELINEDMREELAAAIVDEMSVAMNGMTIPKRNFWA

fold change of co-precipitated HRDE-2 against wild-type HRDE-1 [1]: ~3.3 fold
fold change of co-precipitated HRDE-2 in the mut-2 mutant against wild-type (GFP::3xFLAG::HRDE-1): ~2.18 fold
B1: HRDE-2::2xTy1::GFP (natural protein, C. elegans, UniProt Q22058 1-305, looked up)
chain: MSQNSDTFDSGLQMEVHKMAEADNSSVQQKFDAIRDYIGRKETTIILCEHDDSRKIKLTLNKQRMESSMFLTEMPDGGIQEKTKFHRNGLAVCSYNAFDEVDLPLADSYIFYGLPSNVEAFPRMLHGIEKSAHKENKIVFIDIVVSILEKIQIKVVSFELYNRKCTVPTWVAELVITYCAPIEEQQQRIEEIRRTRASVPVAISDAANGSAEMVPSNTTGSSGSPMSTAPVPAAKKEKVQYESIRQIRPNAQGRYFVPARMINMDIEMSNDEYSPDESENDENEYDYENAARYDDGYDEGHEYCQ
notes: HRDE-2 (HRDE-2/ENRI-3), C. elegans, tagged in the worm strain; Tag ends are read from the strain notation HRDE-2::2xTy1::GFP; also called HRDE-2/ENRI-3; source: C. elegans strain hrde-2/enri-3(tag1660[hrde-2/enri-3::2xTy1::GFP]), adult animals, in lysate; not shown: 2xTy1, C-terminal, kept; GFP, C-terminal, kept
